Experimental data taken from US10577428B2, “Anti-factor XI monoclonal antibodies and methods of use thereof” (Oregon Health & Science University, priority 2007, dated 2020).
“Also recorded” adds a separate entry of the source.

Tests used:
[1] = system: platelet rich plasma; assay: Platelet aggregation in platelet rich plasma in response to ADP and collagen; assay type: cell-based, baboon; settings: platelet rich plasma of treated animals versus control
[2] = system: baboons (Papio anubis); assay: Thrombosis model, collagen coated 4 mm i.d. vascular grafts in AV shunt: platelet and fibrin deposition; assay type: in vivo, baboon (Papio anubis)
Method: A total of 39 non-terminal studies were performed on 17 normal juvenile male baboons (Papio anubis) weighing 9-11 kg. Experiments were conducted on non-anticoagulated awake animals that had chronic exteriorized arterio-venous (AV) shunts previously placed between the femoral artery and vein, as described elsewhere (Hanson et al. (1993) J. Clin. Invest. 92:2003-2012). Baseline shunt blood flow exceeded 250 ml/min in all study animals. Anxiety was managed with low dose ketamine (<2 mg/kg/hr). Platelet counts, red cell counts, and hematocrits were measured daily, before and after the experiments.
(§1) Thrombus formation was initiated within the baboon AV shunt by interposing a thrombogenic segment of prosthetic vascular graft (ePTFE, WL Gore & Co., Flagstaff, Ariz.), as previously described (Hanson et al. (1993) J. Clin. Invest. 92:2003-2012). To consistently trigger platelet-dependent thrombus formation, the clinical graft segments were coated with immobilized collagen. Twenty mm long grafts having internal diameters (i.d.) of either 2 or 4 mm were filled with equine type I collagen (1 mg/ml; Nycomed Arzenmittel, Munich, Germany) for 15 min, and then dried overnight under sterile airflow. This method produced a uniform collagen coating within the graft lumen as determined by scanning electron microscopy (FIGS. 1B and 1C). The thrombogenic collagen-coated grafts were then incorporated between segments of silicon rubber tubing, and deployed into the AV shunts (FIG. 1A). The grafts were exposed to blood for up to 60 min. During each experiment, the blood flow rate through the graft was restricted to 100 ml/min by clamping the proximal silicone rubber shunt segment, thereby producing a mean wall shear rate (MWSR) in the 4 mm grafts of 265 s^−1, while in the 2 mm grafts the initial MWSR was 2120 s^−1. Flow rates were continuously monitored using an ultrasonic flow meter (Transonics Systems, Ithaca, N.Y.). […] Baseline blood flow was restored through the permanent shunt after each experiment. In the 2 mm diameter grafts blood flow rates progressively declined due to thrombus formation. The grafts were removed from the AV shunts when the flow rate fell from 100 ml/min to below 20 ml/min, signaling imminent occlusion. The time from initiation of blood flow to graft removal (<20 ml/min blood flow) was taken as the occlusion time.
For imaging of the platelet deposition, autologous baboon platelets were labeled with 1 mCi of ^111In-oxine as previously described (Hanson et al. (1993) J. Clin. Invest. 92:2003-2012). Labeled platelets were infused and allowed to circulate for at least 1 h before studies were performed. Accumulation of labeled platelets onto thrombogenic grafts were measured in 5-min intervals using a gamma scintillation camera. Homologous ^125I-labeled baboon fibrinogen (4 μCi, >90% clottable) was infused 10 min before each study, and incorporation of the labeled fibrin within the thrombus was assessed using a gamma counter 30 days later to allow the ^111In to decay. The radioactivity deposited (cpm) was divided by the clottable fibrin(ogen) radioactivity of samples taken at the time of the original study (cpm/mg).

[3] = system: normal human plasma (NHP); assay: aPTT and PT in normal human plasma in vitro; assay type: biochemical; settings: 0-40 nM
[4] = system: FXI; assay: FXI procoagulant activity, aPTT and PT after single i.v. bolus in baboons; assay type: in vivo, baboon
Method: The maximum achievable prolongation of the aPTT was about 2.5 fold. FXI:Ag was measured by ELISA using goat anti-human FXI polyclonal capture and detection (horseradish peroxidase conjugated [HRP]) antibodies (Affinity Biologicals, Hamilton, Ontario), which also recognized baboon FXI and its complex with aXIMab. A standard curve was constructed with serial dilutions of NBP, and FXI concentrations were determined in percentage of NBP. Western blots for FXI were performed by size fractionation of 1 μl samples of plasma under non-reducing conditions on 7.5% polyacrylamide-SDS gels, followed by transfer to PVDF membranes. Detection was with a goat-anti-human FXI polyclonal antibody conjugated to HRP and chemiluminescence.
The anticoagulant effect (aPTT) was monitored daily, and thrombosis experiments were performed while the FXI procoagulant activity in the circulating blood was reduced by ≥99%, as assessed by comparing the clotting times to a standard curve generated with FXI deficient human plasma (George King Bio-Medical).

[5] = system: baboons (Papio anubis); assay: Vascular graft occlusion studies, collagen coated 2 mm i.d. grafts, high arterial shear; assay type: in vivo, baboon (Papio anubis); settings: 2 mm i.d. grafts
Method: as §1
Occlusion studies were performed using 10 mm long 2 mm i.d. collagen coated devices which produced high arterial shear rates (2120 s^−1 at 100 ml/min clamped blood flow). Accumulation of labeled platelets onto 2 mm thrombogenic grafts were measured in 3-min intervals using a gamma scintillation camera. Flow was maintained at 100 ml/min by proximal clamping for as long as possible, and then allowed to decrease as the propagating thrombus began to occlude the device. A final blood flow rate of 20 ml/min was used as a cutoff for occlusion, since a fully occlusive thrombi and lack of blood flow through the device could lead to occlusion of the shunt and a significant loss of blood for the animals.
Since aspirin is a less antihemostatic agent than heparin, and it is often included in the standard treatment of arterial-type platelet-dependent thrombosis, ASA was used in the current studies with the occlusion-prone 2 mm i.d. grafts as a long-acting positive control. ASA (32 mg/kg) was administered orally 2-4 h before each thrombosis experiment, as described previously (Hanson et al. (1985) J. Clin. Invest. 75:1591-1599). Four weeks were allowed for washout of each aXIMab and ASA before performing new experiments in the same animal.

[6] = system: baboons; assay: Standard template skin bleeding time test (Surgicutt); assay type: in vivo, baboon
Method: The effects of FXI inhibition and aspirin on primary hemostasis in baboons were assessed using the standard template skin bleeding time test (Surgicutt®, International Technidyne Corp). […] All bleeding time measurements were performed by the same expert technician. For indirect assessment of hemostasis, aPTT and PT measurements were also performed.

[7] = system: baboons; assay: Observation for adverse reactions and bleeding events; assay type: in vivo, baboon

B1: aXIMab: neutralizing murine IgG/kappa anti-human FXI monoclonal antibody from hybridoma 1A6; binds A3 domain; VH SEQ ID NO:3, VL SEQ ID NO:5 (antibody, listed as Mus musculus, V domains shown)
VH: QVTLKESGPGILKPSQTLSLTCSFSGFSLSTSGMGVGWIRQPSGKGLEWLAHIWWDDDKYYNPSLKSQLTISKDTSRNQVFLKITSVDAADTATYYCARKRSSVVAHYYAMDYWGQGTSVTVSS
VL: DIVLTQSPASLAVSLGQRATISCKASQSVDYDGDSYLNWYQQKPGQPPKLLIYAASNLESGIPARFSGSGSGTDFTLNIHPVEEEDAATYYCQQSNGDPWTFGGGTKLEIK
Q: For B1, which “Platelet aggregation in response to ADP and collagen” value [1] is on record?
A: unchanged

Q: What about the “End-point fibrin deposition reduced compared with controls” value ([2]; 4 mm graft) of the same molecule?
A: 81%

Q: And the End-point fibrin deposition ([2]; 4 mm graft, control 1.18±0.19)?
A: 0.23 ± 0.07 mg

Q: What about the platelet accumulation ([2]; 10 min after graft exposure, 4 mm graft, control 0.23±0.03) of the same molecule?
A: 0.13±0.03 ×10^9 platelets

Q: What about the “Graft platelet accumulation lower than in vehicle controls” value ([2]; 60 min, 4 mm graft) of the same molecule?
A: 63%

Q: What about the Graft platelet accumulation ([2]; 60 min, 4 mm graft, n=6, control 3.68±0.52) of the same molecule?
A: 1.38±0.26 ×10^9 platelets

Q: What about the “Systemic platelet counts, change following thrombosis experiments” value ([2]; in vivo) of the same molecule?
A: did not change significantly

Q: And the Systemic platelet counts ([2]; prior to thrombosis studies, control 337±31)?
A: 341±27 ×10^3/μl

Q: What about the “prothrombin time (PT)” value [3] of the same molecule?
A: without affecting

Q: And the “activated partial thromboplastin time (aPTT)” value ([3]; concentration-dependent)?
A: prolonged

Q: What about the “day by which all clotting times normalized” value ([4]; 2 mg/kg i.v. bolus, one-stage clotting assay) of the same molecule?
A: ≤ 11 days

Q: What about the “FXI procoagulant activity inhibited” value ([4]; 1 hr after infusion, 2 mg/kg i.v. bolus, 4 baboons, range 98.8-99.5%) of the same molecule?
A: 99.0%

Q: What about the PT ([4]; after aXIMab administration, n=11, PBS vehicle 9.0±0.1 sec) of the same molecule?
A: 9.1 ± 0.1 s

Q: What about the aPTT ([4]; after aXIMab administration, control 30.5±0.7 sec) of the same molecule?
A: 65.6 ± 2.0 s

Q: What about the “PT, differences between groups” value ([4]; all baboons) of the same molecule?
A: no differences

Q: And the “initial platelet accumulation rate versus vehicle” value [5]?
A: similar

Q: And the thrombus stability ([5]; 2120 s^-1)?
A: unstable; also recorded: profoundly reduced

Q: And the Number occluded ([5]; 60 min)?
A: 0/5

Q: And the graft occlusion ([5]; 60 min-long studies (FIG. 5))?
A: did not occlude the grafts

Q: And the “time after initiation of blood perfusion when growth rate of platelet thrombus was reduced” value ([5]; all treated animals)?
A: 12 to 15 min

Q: And the “Embolic events per experiment” value ([5]; mean ± SEM)?
A: 6.6 ± 0.9

Q: And the “Fibrin deposition” value ([5]; mean ± SEM, control 0.30 ± 0.04)?
A: 0.18 ± 0.02 mg

Q: What about the grafts remained patent ([5]; over 60 min) of the same molecule?
A: 5 of 5

Q: What about the “effect on bleeding time / hemostasis” value ([6]; FIG. 6, compared with no treatment controls) of the same molecule?
A: did not demonstrably impair hemostasis

Q: What about the “standard template bleeding time” value ([6]; vehicle-treated controls 3.4±0.2 min) of the same molecule?
A: 3.5 ± 0.3 min

Q: And the “adverse reactions to the antibody” value ([7]; 2 mg/kg i.v. bolus, 4 baboons)?
A: No adverse reactions

Q: What about the adverse bleeding events ([7]; one week follow-up periods of observation) of the same molecule?
A: No re-bleeding phenomena, petechiae, hematomas or other adverse bleeding events
